Test results published in patent US20090137467A1.
Read-outs that look alike come from different tables or passages of the source.

Experiments:
[1] = biological target: [Asn516]β-RNAP (Escherichia coli)
[2] = biological target: [Asn516]β-RNAP (Escherichia coli); remark: listed apart in the source
[3] = biological target: Escherichia coli RNA polymerase (Escherichia coli) (UniProt P0A8T7)

Substance	inhibition of transcription (IC50) [1] [µM]	inhibition of transcription (IC50) [2] [µM]	inhibition of RNAP (IC50) [3] [µM]
{rifamycin SV}-{CH2C(O)NH(CH2)6NHC(O)CH2S(CH2)3C(NH2+)}-{[Lys5]MccJ25} (from UniProt Q9X2V7) (peptide)	130	–	–
{rifamycin SV}-{CH2C(O)NH(CH2)8NHC(O)CH2S(CH2)3C(NH2+)}-{[Lys5]MccJ25} (from UniProt Q9X2V7) (peptide)	100	–	–
{rifamycin SV}-{CH2C(O)NH(CH2)10NHC(O)(CH2)2(C2N3)(CH2)4C(O)}-{[Lys5]microcin J25} (from UniProt Q9X2V7) (peptide)	–	220	–
{rifamycin SV}-{CH2C(O)NH(CH2)10NHC(O)CH2S(CH2)3C(NH2+)}-{[Lys5]MccJ25} (from UniProt Q9X2V7) (peptide)	95	–	–
{rifamycin SV}-{CH2C(O)NH(CH2)12NHC(O)CH2S(CH2)3C(NH2+)}-{[Lys5]microcin J25} (from UniProt Q9X2V7) (peptide)	48	–	0.002
